From publication PMC4682817, “The Cardiac Stress Response Factor Ms1 Can Bind to DNA and Has a Function in the Nucleus” come the findings set out here.

In series [1] the target is T1, Ms1 270-375 (AT-hook + ABD2) (rat, UniProt Q8K4K7 270-375).
T1 sequence: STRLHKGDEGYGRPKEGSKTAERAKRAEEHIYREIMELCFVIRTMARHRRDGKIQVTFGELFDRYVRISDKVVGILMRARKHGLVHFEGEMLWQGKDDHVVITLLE
In words: fluorescence titration (intrinsic Trp). As to conditions: EMSA buffer: 20 mM phosphate, 100 mM NaCl, 0.01% Triton X-100, pH 7.5, room temperature; fluorescence and NMR buffers not given in the material. For orientation: Mobility shift assays separate free from complexed probe on a gel.

In series [2] the target is T1, Ms1 270-375 (AT-hook + ABD2). The series can be described thus: fluorescence titration (intrinsic Trp); EMSA buffer: 20 mM phosphate, 100 mM NaCl, 0.01% Triton X-100, pH 7.5, room temperature; fluorescence and NMR buffers not given in the material. As to conditions: protein: recombinant; tags: N-terminal TEV-cleavable poly-His (pLEICS-07).
Series [3] has the same target. The series can be described thus: NMR titration; shifts in AT-hook only; 1:0.5 to 1:2; EMSA buffer: 20 mM phosphate, 100 mM NaCl, 0.01% Triton X-100, pH 7.5, room temperature; fluorescence and NMR buffers not given in the material. The settings on record: protein: recombinant; tags: N-terminal TEV-cleavable poly-His (pLEICS-07); self-complementary.

Regarding scrambled oligo, the Kd in series [1] stood at 31 µM.

B1: A7G oligo (dsDNA)
DNA 1: GACACAGACACAATAG
DNA 2: CTATTGTGTCTGTGTC
For B1, in series [2], the dissociation constant Kd stood at 32 ± 5 µM.

B2: wt oligo (dsDNA)
DNA 1: GACACAAACACAATAG
DNA 2: CTATTGTGTTTGTGTC
As to B2, the dissociation constant Kd in series [2] is 8.2 ± 1 µM.

B3: AT-hook oligo (dsDNA)
DNA 1: CGAATTAATTCG
DNA 2: CGAATTAATTCG
As to B3, the binding result in series [3] is “binds”.

As usually defined, the Kd is the constant that tells how readily two partners part at equilibrium.
